According to US11497796B2, “Agents directed against a cis RGMa/neogenin interaction or lipid rafts and use of the same in methods of treatment” (UNIVERSITY HEALTH NETWORK, priority 2013, dated 2022):

Columns and labels:
[1] = test system: retinal cells; test: Ocular ischemia by ligation of the main optic artery, cell survival; format: in vivo, rat; details: injection into the eye after ligation
Protocol: (A,B,C) Schematic representation of the experiments performed on the eye. A) the main artery was ligated to stop blood flow for 15 min. B) RGMa was injected into the eye vitreous just after ligation. C) 2 weeks after ligation, retrograde labeling was performed to assess cell survival. D) Representation of the retinal areas used for quantification. E) Quantification of cell survival performed on 8 rats for each condition.
To extend this study, whether RGMa injection into the eye affected cell survival after ligation of the main optic artery to induce ocular ischemia was tested.

[2] = test system: retinal whole mounts; test: Oxygen Glucose Deprivation (OGD) in retinal whole mounts, PI staining; format: cell-based; details: added to the medium, OGD 1 hour, 24 hours
Protocol: Specifically, retinal whole mounts were subjected to OGD for 1 hour. After ischemia, whole mounts were incubated for 24 hours and dead cells were identified using propidium iodide (PI) staining.
To determine whether Neogenin required lipid raft association to induce cell death, OGD was performed on retinal whole mounts in the presence of 4Ig, which as described above, prevented Neogenin localization into lipid rafts.

B1: RGMa: Repulsive Guidance Molecule A added to the medium or injected into the eye (protein)
chain: PHLRTFTDTFQTCKVQGAWPLIDNNYLNVQVTNTPVLPGSSATATSKLTIIFKSFQECVEQKVYQAEMDELPAAFADGSKNGGDKHGANSLKITEKVSGQHIEIQAKYIGTTIVVRQVGRYLTFAVRMPEEVVNAVEDRDSQGLYLCLRGCPLNQQIDFQTFRLAQAAEGRARRKGPSLPAPPEAFTYESATAKCREKLPVEDLYFQSCVFDLLTTGDVNFMLAAYYAFEDVKMLHSNKDKLHLYERTRALAPGN
- enhancement of survival compared to controls [1]: up to 2 times
- cell survival after OGD [2]: promoted cell survival
